Measured values as given in patent publication US20240368233A1 (University of Washington, published 2024).

B1: 101B62 (designed binder)
chain: HHHHHHGSGLNDIFEAQKIEWHEAENLYFQSGSNDEKRKRAEKALQRAQEAEKKGDVEEAVRAAQEAVRAAKESGDNDVLRKVAEQALRIAKEAEKQGNVEVAVKAARVAVEAAKQAGDNDVLRKVAEQALRIAKEALKQGNVDVAAKAAQVAEEAAKQAGDQDVLRKVKEVQIEIVLAAIELTVRKMGVTMETHRSGREVKVVIKGLHESQQEQLLEDVLRIAELAGVRVRIRFKGDTVTIVVRG
notes: also called LHD101B62
B2: 274A53 (designed binder)
chain: TTNFHLINGSEEARQLIEKAVRAISKKEGTEVHFEKSDGTLEIRVKNLHEKREREIKKVIELILEVAAAERIVRERPGSNLAKKALEIILRAAEELAKADVDAALEAAVRAAEKVVREQPGSNLAKKALEIILRAAEELAKLPDPEALKEAVKAAEKVVREQPGSELAKKALEIIERAAEELKKSPDPEAQKEAKKAEQKVREESGSHHWGSGLNDIFEAQKIEWHEGSHHHHHH
notes: also called LHD274A DHR53 stop; LHD274A53

Assays:
[1] = molecular target: T1, DFA-1; experiment: SEC of mixed components; trimer listed in Table 6
T1 construct: Bivalent connector
T1 chain: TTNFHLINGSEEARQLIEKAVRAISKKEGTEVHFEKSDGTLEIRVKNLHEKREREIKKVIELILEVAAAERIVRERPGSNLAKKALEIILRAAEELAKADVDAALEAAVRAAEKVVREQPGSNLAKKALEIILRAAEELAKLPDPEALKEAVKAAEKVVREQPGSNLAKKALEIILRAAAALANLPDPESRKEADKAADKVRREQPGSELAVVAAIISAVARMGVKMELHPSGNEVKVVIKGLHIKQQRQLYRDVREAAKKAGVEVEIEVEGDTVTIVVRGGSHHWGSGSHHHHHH

[2] = molecular target: T2, LHD274 B62; experiment: SEC binding assay (Superdex 200, normalised A230) of A, B and the mixture AB
T2 construct: also called LHD274 B DHR62 C
T2 single chain, LHD274 chain B fused to DHR62: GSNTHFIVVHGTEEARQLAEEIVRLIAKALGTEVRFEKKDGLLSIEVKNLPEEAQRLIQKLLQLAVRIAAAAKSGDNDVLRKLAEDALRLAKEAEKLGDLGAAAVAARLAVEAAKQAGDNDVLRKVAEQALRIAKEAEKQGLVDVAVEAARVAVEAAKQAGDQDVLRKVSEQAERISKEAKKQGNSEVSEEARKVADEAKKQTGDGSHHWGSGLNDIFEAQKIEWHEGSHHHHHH

[3] = molecular target: T3, DF206; experiment: SEC of mixed components; trimer listed in Table 6
T3 construct: Bivalent connector
T3 chain: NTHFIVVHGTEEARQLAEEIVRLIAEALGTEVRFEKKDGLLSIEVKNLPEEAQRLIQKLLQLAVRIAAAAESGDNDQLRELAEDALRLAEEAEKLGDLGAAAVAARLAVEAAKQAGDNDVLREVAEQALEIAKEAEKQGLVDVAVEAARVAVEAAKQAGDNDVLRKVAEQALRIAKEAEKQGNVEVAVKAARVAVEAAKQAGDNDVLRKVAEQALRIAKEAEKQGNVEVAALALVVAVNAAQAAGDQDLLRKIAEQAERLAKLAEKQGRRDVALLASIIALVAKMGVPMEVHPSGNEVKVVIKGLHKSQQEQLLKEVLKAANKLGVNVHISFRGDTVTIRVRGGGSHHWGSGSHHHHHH

[4] = molecular target: T4, DF202; experiment: SEC of mixed components; trimer listed in Table 6
T4 construct: Bivalent connector
T4 chain: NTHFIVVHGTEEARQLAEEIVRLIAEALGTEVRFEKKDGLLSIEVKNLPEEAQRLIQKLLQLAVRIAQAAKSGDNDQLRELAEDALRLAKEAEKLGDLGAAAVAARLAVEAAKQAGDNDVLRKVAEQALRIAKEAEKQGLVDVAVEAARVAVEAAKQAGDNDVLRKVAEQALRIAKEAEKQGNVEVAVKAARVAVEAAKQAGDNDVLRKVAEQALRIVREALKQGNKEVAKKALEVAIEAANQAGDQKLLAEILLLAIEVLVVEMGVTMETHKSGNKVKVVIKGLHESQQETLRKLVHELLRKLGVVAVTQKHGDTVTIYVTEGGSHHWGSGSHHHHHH

[5] = molecular target: the molecule itself; experiment: SEC titration (Superdex 200, normalised A230) of 274A53 and 29A53 alone; self-association

Row | Binder | binding result [1] | binding result [2] | binding result [3] | binding result [4] | binding result [5]
1 | B1 | binds | – | – | – | –
2 | B2 | – | binds | binds | binds | no binding (tested: 8.0 uM)
